In patent publication US5912120A, “Cloning, expression and diagnosis of human cytochrome P450 2C19: the principal determinant of s-mephenytoin metabolism” (The United States of America as represented by the …, priority 1994, dated 1999):

How the values were obtained:
Assay type in all cases: biochemical
[1] = Mephenytoin 4'-hydroxylase assay, recombinant human CYP2C yeast microsomes (Table III)
Method: (§1) Purified or recombinant yeast microsomes (10-50 pmol) were preincubated with dilauroylphosphatidylcholine (15 μg per 50 pmol P450), P450 reductase (500 U per 50 mol P450), and human cytochrome b5 (2:1 molar ratio when added). The reconstituted mixture was preincubated for 5 min at 37° C., and then placed on ice. A final concentration of 0.4 mM radiolabelled S- or R-mephenytoin (20.7 mCi/mM and 20.9 mCi/mMol) was added to 50 mM HEPES buffer (pH 7.4) containing 0.1 mM EDTA and 1.5 mM MgCl2 for recombinant 2C proteins. The mixture was then incubated at 37° with shaking for 3 min, and the reaction started with the addition of 2mM NADPH and terminated after 30 min with an equal volume of methanol. […] Reaction volumes were generally 0.25 ml except when the volume of recombinant purified cytochrome or yeast microsomes was greater than 50 μl. In these cases, the volume was increased to 0.5 ml to limit the volume of glycerol from the purified preparation to <4% of the final volume.

[2] = as above; conditions: recombinant yeast microsomes + P450 reductase, phospholipid, cytochrome b5 2:1; 0.4 mM substrate, HEPES pH 7.4, 37° C. 30 min; means ± SE
Method: as §1

[3] = Mephenytoin 4'-hydroxylase assay, purified recombinant P450 2C in reconstituted system (Table IV); conditions: for stereospecificity of 4'-hydroxylation of mephenytoin: purified, reconstituted system (Table IV)
Method: Recombinant yeast microsomes were prepared from a 10-12 l culture, and recombinant P450s were purified by aminooctylsepharose chromatography as described by Iwasaki et al., J. Biol. Chem. 226:3380-3382 (1991). The Emulgen was then removed from protein by adsorption of the protein to a 4 g hydroxylapatite column (Hypatite C, Clarkson Chemical Company, Williamsport, Pa.) equilibrated with 10 mM potassium phosphate buffer (pH 7.2), 20% glycerol, 0.1 mM EDTA, and 0.1 mM DTT and washing the column with the same buffer until the absorbance at 280 nm returned to zero. The P450 was then eluted with […], and dialyzed overnight against 100 mM potassium phosphate buffer (pH 7.4, 20% glycerol and 0.1 mM EDTA. Absolute and CO difference spectra of purified P450s were determined in the same buffer but containing 0.2% Emulgen and 0.5% cholate.
Mephenytoin 4'-hydroxylase activity was measured by a modification of the radiometric HPLC assay described by Shimada et al., J. Biol. Chem. 261:909-921 (1986), as described below. Purified or recombinant yeast microsomes (10-50 pmol) were preincubated with dilauroylphosphatidylcholine (15 μg per 50 pmol P450), P450 reductase (500 U per […] P450), and human cytochrome b5 (2:1 molar ratio when added). The reconstituted mixture was preincubated for 5 min at 37° C., and then placed on ice. A final concentration of 0.4 mM radiolabelled S- or R-mephenytoin (20.7 mCi/mM and 20.9 mCi/mMol) was added to 50 mM HEPES buffer (pH 7.4) containing 0.1 mM EDTA and 1.5 mM MgCl2 for recombinant 2C proteins. The mixture was then incubated at 37° with shaking for 3 min, and the reaction started with the addition of 2mM NADPH and terminated after 30 min with an equal volume of methanol. Cytochrome b5 was not included in all CYP2C18 reactions, since it had no effect or produced a slight inhibition on the activity of this CYP protein. Reaction volumes were generally 0.25 ml except when the volume of recombinant purified cytochrome or yeast microsomes was greater than 50 μl. In these cases, the volume was increased to 0.5 ml to limit the volume of glycerol from the purified preparation to <4% of the final volume.
At the end of the incubation period, the reactions were terminated with an equal volume of methanol. The incubation mixture was centrifuged at 10,000 g for 10 min and an aliquot assayed directly using HPLC without extraction. Samples with particularly low activity were concentrated by lyophilization and redissolved in a small volume of methanol:water (1:1) before assay. The HPLC system consisted of a reverse phase C18 (10 μm) Versapak, 300 mm×4.1 mm column (Altech Associates, Deerfield, Ill.) using an isocratic solvent consisting of methanol:water (45:55) with a flow rate was kept of 1 ml/min for 25 min. Detection of radioactive peaks was accomplished using an on-line Flow-One radiochemical detector (Radiomatic Instruments Co., Tampa, Fla. Detection of the unlabeled 4'-hydroxymephenytoin authentic standard was performed using an on-line multiwavelength UV detector at both 211 and 230 nm.
Recombinant P450s were purified from yeast microsomes and assays performe

[4] = Tolbutamide hydroxylase assay, recombinant human CYP2C yeast microsomes (Table V); conditions: 1 mg yeast microsomal protein + purified P450 reductase (1,000 units)
Method: Tolbutamide hydroxylase activity was measured according to Knodell et al., J. Pharmacol. Exper. […] Yeast microsomes (1 mg protein) were preincubated with 300 pmol hamster P450 reductase in 0.2 ml of the incubation buffer (below) for 3 min at 37° C. The reaction was then placed on ice and incubated in 0.2 ml of 50 mM HEPES buffer (pH 7.4) containing 1.5 mM MgCl2, 0.1 mM EDTA in a final volume of 1 ml and 1 mM sodium tolbutamide. The reaction was initiated with 0.5 mM NADPH. Human liver microsomes (0.22 mg protein) were incubated without reductase. Incubations with reconstituted recombinant P450s contained 50 pmol purified P450 enzyme, 150 pmol P450 reductase, and 15 μg dilauroylphosphatidyl-choline, and were performed in 100 mM potassium phosphate buffer (pH 7.4). Reactions were terminated after 60 min at 37° C. by the addition of 50 μl of 4N HCl, followed by extraction with 3 ml of water-saturated ethyl acetate. The ethyl acetate extracts were dried under nitrogen at 40° C., the residue resolubilized in 200 μl methanol, and 4-hydroxytolbutamide then assayed using HPLC by injecting 50 μl of the solubilized extract onto a μBONDAPAK C18 column (4.6×300 mm) using 0.05% phosphoric acid, pH 2.6: acetonitrile (6:4, v/v) as the mobile phase with a flow rate of 1 ml/min. The column eluate was monitored at 230 nm and rates of product formation were determined from standard curves prepared by adding varying amounts of 4-hydroxytolbutamide to incubations conducted without NADPH. […] Samples were analyzed in triplicate.

[5] = purified P450, reconstituted system

B1: 2C18-Thr^385 (29c): recombinant human P450 2C18 allelic variant, clone 29c (Thr at 385), in yeast microsomes; residue 2 not stated in Table III (protein, UniProt P33260 26-490, looked up)
Cytochrome P450 2C18: RGRLPSGPTPLPIIGNILQLDVKDMSKSLTNFSKVYGPVFTVYFGLKPIVVLHGYEAVKEALIDHGEEFSGRGSFPVAEKVNKGLGILFSNGKRWKEIRRFCLMTLRNFGMGKRSIEDRVQEEARCLVEELRKTNASPCDPTFILGCAPCNVICSVIFHDRFDYKDQRFLNLMEKFNENLRILSSPWIQVCNNFPALIDYLPGSHNKIAENFAYIKSYVLERIKEHQESLDMNSARDFIDCFLIKMEQEKHNQQSEFTVESLIATVTDMFGAGTETTSTTLRYGLLLLLKYPEVTAKVQEEIECVVGRNRSPCMQDRSHMPYTDAVVHEIQRYIDLLPTNLPHAVTCDVKFKNYLIPKGTTIITSLTSVLHNDKEFPNPEMFDPGHFLDKSGNFKKSDYFMPFSAGKRMCMGEGLARMELFLFLTTILQNFNLKSQVDPKDIDITPIANAFGRVPPLYQLCFIPV
[1]; recombinant yeast microsomes + P450 reductase, phospholipid, cytochrome b5 2:1, 0.4 mM substrate, HEPES pH 7.4, 37° C. 30 min, means ± SE
  Mephenytoin 4'-Hydroxylase Activity S: 0.042 ± 0.004 nmol/min/nmol P450
[1]; recombinant yeast microsomes, no b5
  Mephenytoin 4'-Hydroxylase Activity S: 0.034 ± 0.008 nmol/min/nmol P450
[1]; recombinant yeast microsomes, with cytochrome b5
  R/S Ratio: 1.3
[2]
  Mephenytoin 4'-Hydroxylase Activity R: 0.054 ± 0.003 nmol/min/nmol P450

B2: 2C18: recombinant human cytochrome P450 2C18, variant not specified in the text (protein, UniProt P33260 26-490, looked up)
Cytochrome P450 2C18: RGRLPSGPTPLPIIGNILQLDVKDMSKSLTNFSKVYGPVFTVYFGLKPIVVLHGYEAVKEALIDHGEEFSGRGSFPVAEKVNKGLGILFSNGKRWKEIRRFCLMTLRNFGMGKRSIEDRVQEEARCLVEELRKTNASPCDPTFILGCAPCNVICSVIFHDRFDYKDQRFLNLMEKFNENLRILSSPWIQVCNNFPALIDYLPGSHNKIAENFAYIKSYVLERIKEHQESLDMNSARDFIDCFLIKMEQEKHNQQSEFTVESLIATVTDMFGAGTETTSTTLRYGLLLLLKYPEVTAKVQEEIECVVGRNRSPCMQDRSHMPYTDAVVHEIQRYIDLLPTNLPHAVTCDVKFKNYLIPKGTTIITSLTSVLHNDKEFPNPEMFDPGHFLDKSGNFKKSDYFMPFSAGKRMCMGEGLARMELFLFLTTILQNFNLKSQVDPKDIDITPIANAFGRVPPLYQLCFIPV
[3]
  stereospecificity of 4'-hydroxylation of mephenytoin: stereoselective for the R-enantiomer

B3: 2C18-Asp^2 Thr^385 (29c-1a): recombinant human P450 2C18, clone 29c with correct Asp^2, Thr^385 (protein, UniProt P33260 26-490, looked up)
Cytochrome P450 2C18: RGRLPSGPTPLPIIGNILQLDVKDMSKSLTNFSKVYGPVFTVYFGLKPIVVLHGYEAVKEALIDHGEEFSGRGSFPVAEKVNKGLGILFSNGKRWKEIRRFCLMTLRNFGMGKRSIEDRVQEEARCLVEELRKTNASPCDPTFILGCAPCNVICSVIFHDRFDYKDQRFLNLMEKFNENLRILSSPWIQVCNNFPALIDYLPGSHNKIAENFAYIKSYVLERIKEHQESLDMNSARDFIDCFLIKMEQEKHNQQSEFTVESLIATVTDMFGAGTETTSTTLRYGLLLLLKYPEVTAKVQEEIECVVGRNRSPCMQDRSHMPYTDAVVHEIQRYIDLLPTNLPHAVTCDVKFKNYLIPKGTTIITSLTSVLHNDKEFPNPEMFDPGHFLDKSGNFKKSDYFMPFSAGKRMCMGEGLARMELFLFLTTILQNFNLKSQVDPKDIDITPIANAFGRVPPLYQLCFIPV
[3]; [5]
  R/S Ratio: 1.3
[3]; purified P450, reconstituted system, triplicate, means ± SE, blank not subtracted
  Mephenytoin 4'-Hydroxylase Activity S: 0.116 ± 0.010 nmol/min/nmol P450
[3]; triplicate, means ± SE, blank not subtracted
  Mephenytoin 4'-Hydroxylase Activity R: 0.147 ± 0.025 nmol/min/nmol P450
[4]; adjusted for P450 content
  Tolbutamide Hydroxylase Activity (nmol/min/nmol P450): 0.19 ± 0.02 nmol/min/nmol P450
[4]; means ±SE
  Tolbutamide Hydroxylase Activity (nmol/min/mg protein): 9.3 ± 0.7 nmol/min/mg protein

B4: 2C8 Purified from Human Liver: cytochrome P450 2C8 purified from human liver microsomes (protein, UniProt P10632 1-490, looked up)
Cytochrome P450 2C8: MEPFVVLVLCLSFMLLFSLWRQSCRRRKLPPGPTPLPIIGNMLQIDVKDICKSFTNFSKVYGPVFTVYFGMNPIVVFHGYEAVKEALIDNGEEFSGRGNSPISQRITKGLGIISSNGKRWKEIRRFSLTTLRNFGMGKRSIEDRVQEEAHCLVEELRKTKASPCDPTFILGCAPCNVICSVVFQKRFDYKDQNFLTLMKRFNENFRILNSPWIQVCNNFPLLIDCFPGTHNKVLKNVALTRSYIREKVKEHQASLDVNNPRDFIDCFLIKMEQEKDNQKSEFNIENLVGTVADLFVAGTETTSTTLRYGLLLLLKHPEVTAKVQEEIDHVIGRHRSPCMQDRSHMPYTDAVVHEIQRYSDLVPTGVPHAVTTDTKFRNYLIPKGTTIMALLTSVLHDDKEFPNPNIFDPGHFLDKNGNFKKSDYFMPFSAGKRICAGEGLARMELFLFLTTILQNFNLKSVDDLKNLNTTAVTKGIVSLPPSYQICFIPV
[3]; [5]
  R/S Ratio: 1.6

B5: 2C9: recombinant human cytochrome P450 2C9, allele not specified in the text (protein, UniProt P11712 1-490, looked up)
Cytochrome P450 2C9: MDSLVVLVLCLSCLLLLSLWRQSSGRGKLPPGPTPLPVIGNILQIGIKDISKSLTNLSKVYGPVFTLYFGLKPIVVLHGYEAVKEALIDLGEEFSGRGIFPLAERANRGFGIVFSNGKKWKEIRRFSLMTLRNFGMGKRSIEDRVQEEARCLVEELRKTKASPCDPTFILGCAPCNVICSIIFHKRFDYKDQQFLNLMEKLNENIKILSSPWIQICNNFSPIIDYFPGTHNKLLKNVAFMKSYILEKVKEHQESMDMNNPQDFIDCFLMKMEKEKHNQPSEFTIESLENTAVDLFGAGTETTSTTLRYALLLLLKHPEVTAKVQEEIERVIGRNRSPCMQDRSHMPYTDAVVHEVQRYIDLLPTSLPHAVTCDIKFRNYLIPKGTTILISLTSVLHDNKEFPNPEMFDPHHFLDEGGNFKKSKYFMPFSAGKRICVGEALAGMELFLFLTSILQNFNLKSLVDPKNLDTTPVVNGFASVPPFYQLCFIPV
[1]; recombinant yeast microsomes
  rate of 4'-hydroxylation of S-mephenytoin: 0.02 nmol/min/nmol
[3]; S-mephenytoin 4'-hydroxylation
  turnover number higher than the activity of 2C9 purified from human liver: ~ 100 times
[3]
  stereospecificity of 4'-hydroxylation of mephenytoin: not stereospecific

B6: 2C9 Purified from Human Liver: cytochrome P450 2C9 purified from human liver microsomes (protein, UniProt P11712 1-490, looked up)
Cytochrome P450 2C9: MDSLVVLVLCLSCLLLLSLWRQSSGRGKLPPGPTPLPVIGNILQIGIKDISKSLTNLSKVYGPVFTLYFGLKPIVVLHGYEAVKEALIDLGEEFSGRGIFPLAERANRGFGIVFSNGKKWKEIRRFSLMTLRNFGMGKRSIEDRVQEEARCLVEELRKTKASPCDPTFILGCAPCNVICSIIFHKRFDYKDQQFLNLMEKLNENIKILSSPWIQICNNFSPIIDYFPGTHNKLLKNVAFMKSYILEKVKEHQESMDMNNPQDFIDCFLMKMEKEKHNQPSEFTIESLENTAVDLFGAGTETTSTTLRYALLLLLKHPEVTAKVQEEIERVIGRNRSPCMQDRSHMPYTDAVVHEVQRYIDLLPTSLPHAVTCDIKFRNYLIPKGTTILISLTSVLHDNKEFPNPEMFDPHHFLDEGGNFKKSKYFMPFSAGKRICVGEALAGMELFLFLTSILQNFNLKSLVDPKNLDTTPVVNGFASVPPFYQLCFIPV
[3]; [5]
  R/S Ratio: 1.6
